Patent publication US20240352127A1

Experiments:
[1] = target: human PD-L1 on cells (human) (UniProt Q9NZQ7); experiment: FACS staining of HCT116 cells with control antibody (expression profile), triplicates
[2] = target: human PD-L1 on cells (human) (UniProt Q9NZQ7); experiment: FACS staining of MDA-MB-231 cells with control antibody (expression profile), triplicates

Chain of human PD-L1 on cells (human) (Q9NZQ7 19-290 limits assumed): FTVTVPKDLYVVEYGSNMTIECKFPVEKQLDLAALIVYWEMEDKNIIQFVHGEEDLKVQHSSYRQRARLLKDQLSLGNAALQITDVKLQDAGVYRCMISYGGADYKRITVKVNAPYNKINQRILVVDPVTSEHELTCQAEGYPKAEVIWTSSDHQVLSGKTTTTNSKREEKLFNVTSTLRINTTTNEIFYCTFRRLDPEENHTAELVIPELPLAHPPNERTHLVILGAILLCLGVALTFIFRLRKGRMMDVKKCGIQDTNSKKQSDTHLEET

MFI [1]: 10900 MFI | MFI [2]: 74600 MFI
Substance: anti-PD-L1 RG7446 MPDL3280A (antibody)
